Results taken from patent CN117138036A (NANJING RONGJIEKANG BIOTECHNOLOGY CO LTD, dated 2023).

Columns and labels:
IL-5 = IL-5 (human, UniProt P05113 20-134); test: cell-based or functional assay
IL-4Rα = IL-4Rα (UniProt P24394 26-232, limits assumed); test: cell-based or functional assay

IL-5, sequence (P05113 20-134 limits assumed): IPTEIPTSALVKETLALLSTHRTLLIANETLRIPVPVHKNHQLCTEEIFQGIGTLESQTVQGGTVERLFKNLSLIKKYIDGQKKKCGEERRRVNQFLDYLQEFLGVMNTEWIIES

Row | EC50, 中和IL-5诱导的TF-1细胞增殖 (IL-5) [nM] | EC50, 中和IL-4诱导的TF-1细胞增殖 (IL-4Rα) [nM] | EC50, 中和IL-13诱导的TF-1细胞增殖 (IL-4Rα) [nM] | Binder
1 | 0.336 |  |  | 2B3 (VHH) VHH: QVQLVESGGGSVQAGGSLRLSCAASGNTFSFSTYCMGWFRQSPGKEREGSLATIYDGSTAYAGSVKGRFTISVDNAKNILYLQMNNLKPEDTAMYYCAAAKYCMFWSDPSYWGQGTQVTVSS
2 |  | 0.281 | 0.229 | 4E9V0 (VHH) VHH: QVQLVESGGGSVQAGGSLRLSCAASGDFYCMAWFRQAPGKEREGVATIRSGGRSTYYADSVKGRFTISKDNAKDTLYLQMNSLKPEDTAMYYCAVGVDGNCRNYWGQGTQVTVSS
3 | 0.122 |  |  | reslizumab (antibody, V domains shown) VH: EVQLVESGGGLVQPGGSLRLSCAVSGLSLTSNSVNWIRQAPGKGLEWVGLIWSNGDTDYNSAIKSRFTISRDTSKSTVYLQMNSLRAEDTAVYYCAREYYGYFDYWGQGTLVTVSS VL: DIQMTQSPSSLSASVGDRVTITCLASEGISSYLAWYQQKPGKAPKLLIYGANSLQTGVPSRFSGSGSATDYTLTISSLQPEDFATYYCQQSYKFPNTFGQGTKVEVK
4 |  | 0.13 | 0.178 | dupilumab (antibody, V domains shown) VH: EVQLVESGGGLEQPGGSLRLSCAGSGFTFRDYAMTWVRQAPGKGLEWVSSISGSGGNTYYADSVKGRFTISRDNSKNTLYLQMNSLRAEDTAVYYCAKDRLSITIRPRYYGLDVWGQGTTVTVSS VL: DIVMTQSPLSLPVTPGEPASISCRSSQSLLYSIGYNYLDWYLQKSGQSPQLLIYLGSNRASGVPDRFSGSGSGTDFTLKISRVEAEDVGFYYCMQALQTPYTFGQGTKLEIKR
